± gives the uncertainty stated by the source.
B1: Ankyrin repeat and SAM domain-containing protein 6, residues 774 to 836; numbered along this chain, Q68DC2 (parent)
chain: DEDELTGILKKLSLEKYQPIFEEQEVDMEAFLTLTDGDLKELGIKTDGSRQQILAAISELNAG
B2: Mineralocorticoid receptor, residues 600 to 675; numbered along this chain, P08235 (parent)
chain: SKICLVCGDEASGCHYGVVTCGSCKVFFKRAVEGQHNYLCAGRNDCIIDKIRRKNCPACRLQKCLQAGMNLGARKS

Variants of: B1
Experiment: abundance fitness (aPCA) (normalised: wild type 0, dead -1); higher = more abundant; growth selection in yeast, the domain comes from the species named
Settings: Homo sapiens

| Variant | abundance fitness |
| --- | --- |
| DEIELTGILKKLSLEKYQPIFEEQEVDMEAFLTLTDGDLKELGIKTDGSRQQILAAISELNAG [D3I] | -0.082 ± 0.1 |
| DEHELTGILKKLSLEKYQPIFEEQEVDMEAFLTLTDGDLKELGIKTDGSRQQILAAISELNAG [D3H] | 0.2 ± 0.063 |
| DEAELTGILKKLSLEKYQPIFEEQEVDMEAFLTLTDGDLKELGIKTDGSRQQILAAISELNAG [D3A] | -0.157 ± 0.054 |
| DEEELTGILKKLSLEKYQPIFEEQEVDMEAFLTLTDGDLKELGIKTDGSRQQILAAISELNAG [D3E] | -0.078 ± 0.082 |
| DEKELTGILKKLSLEKYQPIFEEQEVDMEAFLTLTDGDLKELGIKTDGSRQQILAAISELNAG [D3K] | 0.162 ± 0.067 |
| DEFELTGILKKLSLEKYQPIFEEQEVDMEAFLTLTDGDLKELGIKTDGSRQQILAAISELNAG [D3F] | 0.084 ± 0.12 |
| DEGELTGILKKLSLEKYQPIFEEQEVDMEAFLTLTDGDLKELGIKTDGSRQQILAAISELNAG [D3G] | -0.472 ± 0.098 |
| DECELTGILKKLSLEKYQPIFEEQEVDMEAFLTLTDGDLKELGIKTDGSRQQILAAISELNAG [D3C] | 0.057 ± 0.078 |
| GEDELTGILKKLSLEKYQPIFEEQEVDMEAFLTLTDGDLKELGIKTDGSRQQILAAISELNAG [D1G] | -0.039 ± 0.078 |
| YEDELTGILKKLSLEKYQPIFEEQEVDMEAFLTLTDGDLKELGIKTDGSRQQILAAISELNAG [D1Y] | 0.031 ± 0.088 |
| WEDELTGILKKLSLEKYQPIFEEQEVDMEAFLTLTDGDLKELGIKTDGSRQQILAAISELNAG [D1W] | -0.363 ± 0.31 |
| NEDELTGILKKLSLEKYQPIFEEQEVDMEAFLTLTDGDLKELGIKTDGSRQQILAAISELNAG [D1N] | 0.113 ± 0.12 |
| AEDELTGILKKLSLEKYQPIFEEQEVDMEAFLTLTDGDLKELGIKTDGSRQQILAAISELNAG [D1A] | -0.023 ± 0.076 |
| TEDELTGILKKLSLEKYQPIFEEQEVDMEAFLTLTDGDLKELGIKTDGSRQQILAAISELNAG [D1T] | 0.007 ± 0.13 |
| QEDELTGILKKLSLEKYQPIFEEQEVDMEAFLTLTDGDLKELGIKTDGSRQQILAAISELNAG [D1Q] | 0.002 ± 0.14 |
| SEDELTGILKKLSLEKYQPIFEEQEVDMEAFLTLTDGDLKELGIKTDGSRQQILAAISELNAG [D1S] | 0.045 ± 0.17 |
| EEDELTGILKKLSLEKYQPIFEEQEVDMEAFLTLTDGDLKELGIKTDGSRQQILAAISELNAG [D1E] | -0.103 ± 0.14 |
| FEDELTGILKKLSLEKYQPIFEEQEVDMEAFLTLTDGDLKELGIKTDGSRQQILAAISELNAG [D1F] | -0.312 ± 0.3 |

| Variant | abundance fitness |
| --- | --- |
| MEDELTGILKKLSLEKYQPIFEEQEVDMEAFLTLTDGDLKELGIKTDGSRQQILAAISELNAG [D1M] | 0.351 ± 0.14 |
| IEDELTGILKKLSLEKYQPIFEEQEVDMEAFLTLTDGDLKELGIKTDGSRQQILAAISELNAG [D1I] | 0.158 ± 0.19 |
| LEDELTGILKKLSLEKYQPIFEEQEVDMEAFLTLTDGDLKELGIKTDGSRQQILAAISELNAG [D1L] | 0.223 ± 0.12 |
| DLDELTGILKKLSLEKYQPIFEEQEVDMEAFLTLTDGDLKELGIKTDGSRQQILAAISELNAG [E2L] | 0.288 ± 0.08 |
| DRDELTGILKKLSLEKYQPIFEEQEVDMEAFLTLTDGDLKELGIKTDGSRQQILAAISELNAG [E2R] | 0.081 ± 0.072 |
| DNDELTGILKKLSLEKYQPIFEEQEVDMEAFLTLTDGDLKELGIKTDGSRQQILAAISELNAG [E2N] | 0.047 ± 0.084 |
| DHDELTGILKKLSLEKYQPIFEEQEVDMEAFLTLTDGDLKELGIKTDGSRQQILAAISELNAG [E2H] | 0.248 ± 0.32 |
| DQDELTGILKKLSLEKYQPIFEEQEVDMEAFLTLTDGDLKELGIKTDGSRQQILAAISELNAG [E2Q] | 0.11 ± 0.19 |
| DWDELTGILKKLSLEKYQPIFEEQEVDMEAFLTLTDGDLKELGIKTDGSRQQILAAISELNAG [E2W] | 0.143 ± 0.069 |
| DCDELTGILKKLSLEKYQPIFEEQEVDMEAFLTLTDGDLKELGIKTDGSRQQILAAISELNAG [E2C] | 0.142 ± 0.084 |
| DMDELTGILKKLSLEKYQPIFEEQEVDMEAFLTLTDGDLKELGIKTDGSRQQILAAISELNAG [E2M] | 0.565 ± 0.19 |
| DADELTGILKKLSLEKYQPIFEEQEVDMEAFLTLTDGDLKELGIKTDGSRQQILAAISELNAG [E2A] | -0.029 ± 0.055 |
| DFDELTGILKKLSLEKYQPIFEEQEVDMEAFLTLTDGDLKELGIKTDGSRQQILAAISELNAG [E2F] | 0.287 ± 0.079 |
| DTDELTGILKKLSLEKYQPIFEEQEVDMEAFLTLTDGDLKELGIKTDGSRQQILAAISELNAG [E2T] | 0.361 ± 0.23 |
| DYDELTGILKKLSLEKYQPIFEEQEVDMEAFLTLTDGDLKELGIKTDGSRQQILAAISELNAG [E2Y] | 0.063 ± 0.078 |
| DPDELTGILKKLSLEKYQPIFEEQEVDMEAFLTLTDGDLKELGIKTDGSRQQILAAISELNAG [E2P] | 0.112 ± 0.16 |
| DVDELTGILKKLSLEKYQPIFEEQEVDMEAFLTLTDGDLKELGIKTDGSRQQILAAISELNAG [E2V] | -0.234 ± 0.065 |
| DGDELTGILKKLSLEKYQPIFEEQEVDMEAFLTLTDGDLKELGIKTDGSRQQILAAISELNAG [E2G] | -0.158 ± 0.059 |

Variants of: B2
Experiment: as above
Settings: Homo sapiens

| Variant | abundance fitness |
| --- | --- |
| SKICLVCGDEASGCHYGVVTCGSCKVFFKRAVEGQHNYLCAGRNDCIIDKIRRKNCPACRLQKCLQAGMNLGARWS [K75W] | -0.007 ± 0.058 |
| SKICLVCGDEASGCHYGVVTCGSCKVFFKRAVEGQHNYLCAGRNDCIIDKIRRKNCPACRLQKCLQAGMNLGARAS [K75A] | 0.059 ± 0.052 |

Source: the Human Domainome abundance scans (Beltran et al. 2025)
